Patent publication US20150344570A1 (published 2015)

Columns and labels:
FcγRIIIa [1] = target: T1, FcγRIIIa (human, UniProt P08637 17-208); assay: ratio of SPR KDs: KD of GpH7-TA7/GpH7-B78/GpL16-k0 divided by KD of this antibody
T1 construct: extracellular domain; also called FcgRIIIa; CD16A; not shown: His tag attached to the C terminus
Experimental: (§1) Analysis of interaction between objective antibody and the FcγR was carried out using Biacore T100 (GE Healthcare). HBS-EP+ (GE Healthcare) was used as the running buffer, and the measurement temperature was set to 25° C. Chips produced by immobilizing the antigen peptide by the amine coupling method to a Series S Sencor Chip CM5 (GE Healthcare), or alternatively, chips produced by allowing preliminarily biotinylated antigen peptides to interact with and immobilize onto a Series S Sensor Chip SA (certified) (GE Healthcare) were used. Antibodies of interest were captured onto an antigen peptide-immobilized chip, and allowed to interact to each FcγR diluted with running buffer. To regenerate and repeatedly use the chip, the antibodies captured on the chip were washed off by reacting 10 mM glycine-HCl, pH 1.5.
(§2) Specifically, to calculate association rate constant ka (L/mol/s) and dissociation rate constant kd (1/s), sensorgrams obtained by measurement were processed for global fitting by Biacore Evaluation Software using 1:1 Langmuir binding model and dissociation constant KD (mol/1) was calculated from the resulting values.
T1 sequence (P08637 17-208): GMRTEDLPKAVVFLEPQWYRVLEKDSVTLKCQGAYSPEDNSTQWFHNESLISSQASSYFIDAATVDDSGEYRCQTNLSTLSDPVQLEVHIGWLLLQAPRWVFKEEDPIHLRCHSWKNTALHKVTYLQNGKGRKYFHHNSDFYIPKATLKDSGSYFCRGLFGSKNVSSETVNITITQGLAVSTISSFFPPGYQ

FcγRIIIa [2] = target: T1, FcγRIIIa; assay: ratio of SPR KDs: KD of GpH7-A5/GpH7-B3/GpL16-k0 divided by KD of this antibody
Experimental: (§3) The prepared antibodies were compared for the FcγRIIIa-binding activity using, as an indicator, KD for FcγRIIIa that was determined according to the method described in Reference Example 2.
as §1, §2

FcγRIIIa [3] = target: T1, FcγRIIIa; assay: ratio of SPR KDs: KD of GpH7-TA7/GpH7-B78/GpL16-k0 divided by KD of this antibody; remark: listed apart in the source
Excerpt: First, it was considered which H chain should be introduced with Y296W. GpH7-TA52 (SEQ ID NO: 44) resulting from the introduction of the mutation Y296W into GpH7-TA7 was constructed, and expressed and prepared in combination with GpH7-B78 according to the method described in Reference Example 1. Furthermore, GpH7-TA58 (SEQ ID NO: 45) resulting from the introduction of Y296W into GpH7-B78 was constructed, and expressed and prepared in combination with GpH7-TA22 according to the method described in Reference Example 1. To assess the effects of combinations with Y296W, the prepared antibodies were compared for the FcγRIIIa-binding activity according to the method described in Reference Example 2 (Table 16).
as §1

FcγRIIIa [4] = target: T1, FcγRIIIa; assay: ratio of SPR KDs: KD of GpH7-G1d/GpL16-k0 divided by KD of this antibody
Experimental: as §3, §1, §2

FcγRIIIa [5] = target: T1, FcγRIIIa; assay: ratio of SPR KDs: KD of GpH7-TA22/GpH7-B78/GpL16-k0 divided by KD of this antibody
Excerpt: Then, GpH7-TA54 (SEQ ID NO: 46) resulting from the introduction of Y296W into GpH7-TA22 was constructed, and expressed and prepared in combination with GpH7-B78 according to the method described in Reference Example 1. Furthermore, GpH7-TA58 (SEQ ID NO: 45) resulting from the introduction of Y296W into GpH7-B78 was constructed, and expressed and prepared in combination with GpH7-TA22 according to the method described in Reference Example 1. To assess the effect of combination with Y296W, the prepared antibodies were compared for the FcγRIIIa-binding activity according to the method described in Reference Example 2 (Table 17).
as §1

FcγRIIIa [6] = target: T2, FcγRIIIa (human, UniProt P08637 17-208); assay: SPR (Biacore); KD of GpH7-TA7/GpH7-B78/GpL16-k0 for FcγRIIIa divided by the KD of this antibody
T2 construct: extracellular domain; Soluble extracellular domain with a C-terminal His tag, expressed in FreeStyle293 cells and used as the analyte in Biacore; also called FcgRIIIa; CD16A; not shown: His tag attached to the C terminus
Experimental: Then, K334G was also assessed in the same manner. GpH7-TA40 (SEQ ID NO: 47) resulting from the introduction of K334G into GpH7-TA7 was constructed, and expressed and prepared in combination with GpH7-B78 according to the method described in Reference Example 1. Furthermore, GpH7-TA50 (SEQ ID NO: 48) resulting from the introduction of K334G into GpH7-B78 was constructed, and expressed and prepared in combination with GpH7-TA7 according to the method described in Reference Example 1. To assess the effect of combinations with K334G, the prepared antibodies were compared for the FcγRIIIa binding according to the method described in Reference Example 2 (Table 18).
as §1, with “To regenerate and repeatedly use the chip, the antibodies captured on the chip were washed off by reacting 10 mM glycine-HCl, pH 1.5.” left out
T2 sequence (P08637 17-208): as above

B1: GpH7-TA7/GpH7-B78/GpL16-k0 (antibody, human IgG1, kappa)
heavy 1: QVQLVQSGAEVKKPGASVTVSCKASGYTFTDYEMHWIRQPPGEGLEWIGAIDPKTGDTAYSESFQDRVTLTADKSTSTAYMELSSLTSEDTAVYYCTRFYSYTYWGQGTLVTVSSASTKGPSVFPLAPSSKSTSGGTAALGCLVKDYFPEPVTVSWNSGALTSGVHTFPAVLQSSGLYSLSSVVTVPSSSLGTQTYICNVNHKPSNTKVDKKVEPKSCDKTHTCPPCPAPEYLWGPSVFLFPPKPKDTLMISRTPEVTCVVVDVSHEDPEVKFNWYVDGVEVHNAKTKPREEQYNATYRVVSVLTVLHQDWLNGKEYKCKVSNKALPAPIEKTISKAKGQPREPQVYTLPPSRKELTKNQVSLTCLVKGFYPSDIAVEWESNGQPENNYKTTPPVLDSDGSFFLYSKLTVDKSRWQQGNVFSCSVMHEALHNRYTQKSLSLSP
heavy 2: QVQLVQSGAEVKKPGASVTVSCKASGYTFTDYEMHWIRQPPGEGLEWIGAIDPKTGDTAYSESFQDRVTLTADKSTSTAYMELSSLTSEDTAVYYCTRFYSYTYWGQGTLVTVSSASTKGPSVFPLAPSSKSTSGGTAALGCLVKDYFPEPVTVSWNSGALTSGVHTFPAVLQSSGLYSLSSVVTVPSSSLGTQTYICNVNHKPSNTKVDKKVEPKSCDKTHTCPPCPAPELLGGPDVFLFPPKPKDTLMISRTPEVTCVVVDVSHEDPEVKFNWYVDGVEVHNAKTKPREEQYNSTYRVVSVLTVLHQDWLNGKEYKCKVSNKALPLPEEKTISKAKGQPREPQVYTLPPSRDELTKNQVSLTCLVKGFYPSDIAVEWESNGQPENNYKTTPPVLDSDGSFFLYSKLTVDKSRWQQGNVFSCSVMHEALHNHYTQESLSLSP
light: DIVMTQSPLSLPVTPGEPASISCQASESLVHSNRNTYLHWYLQKPGQSPQLLIYKVSNRFSGVPDRFSGSGSGTDFTLKISRVEAEDVGVYYCSQNTHVPPTFGQGTKVEIERTVAAPSVFIFPPSDEQLKSGTASVVCLLNNFYPREAKVQWKVDNALQSGNSQESVTEQDSKDSTYSLSSTLTLSKADYEKHKVYACEVTHQGLSSPVTKSFNRGEC
notes: Anti-glypican-3 IgG1 heterodimer; L234Y/G236W/S298A in H1, S239D/A330L/I332E in H2
KD ratio (FcγRIIIa [1]): 1 fold | KD ratio 2 (FcγRIIIa [2]): 347 fold | KD ratio (FcγRIIIa [3]): 1 fold | KD ratio 1 (FcγRIIIa [4]): 261 fold

B2: GpH7-TA22/GpH7-B78/GpL16-k0 (antibody, human IgG1, kappa)
heavy 1: QVQLVQSGAEVKKPGASVTVSCKASGYTFTDYEMHWIRQPPGEGLEWIGAIDPKTGDTAYSESFQDRVTLTADKSTSTAYMELSSLTSEDTAVYYCTRFYSYTYWGQGTLVTVSSASTKGPSVFPLAPSSKSTSGGTAALGCLVKDYFPEPVTVSWNSGALTSGVHTFPAVLQSSGLYSLSSVVTVPSSSLGTQTYICNVNHKPSNTKVDKKVEPKSCDKTHTCPPCPAPEYLWGPDVFLFPPKPKDTLMISRTPEVTCVVVDVSHEDPEVKFNWYVDGVEVHNAKTKPREEQYNATYRVVSVLTVLHQDWLNGKEYKCKVSNKALPAPIEKTISKAKGQPREPQVYTLPPSRKELTKNQVSLTCLVKGFYPSDIAVEWESNGQPENNYKTTPPVLDSDGSFFLYSKLTVDKSRWQQGNVFSCSVMHEALHNRYTQKSLSLSP
heavy 2: QVQLVQSGAEVKKPGASVTVSCKASGYTFTDYEMHWIRQPPGEGLEWIGAIDPKTGDTAYSESFQDRVTLTADKSTSTAYMELSSLTSEDTAVYYCTRFYSYTYWGQGTLVTVSSASTKGPSVFPLAPSSKSTSGGTAALGCLVKDYFPEPVTVSWNSGALTSGVHTFPAVLQSSGLYSLSSVVTVPSSSLGTQTYICNVNHKPSNTKVDKKVEPKSCDKTHTCPPCPAPELLGGPDVFLFPPKPKDTLMISRTPEVTCVVVDVSHEDPEVKFNWYVDGVEVHNAKTKPREEQYNSTYRVVSVLTVLHQDWLNGKEYKCKVSNKALPLPEEKTISKAKGQPREPQVYTLPPSRDELTKNQVSLTCLVKGFYPSDIAVEWESNGQPENNYKTTPPVLDSDGSFFLYSKLTVDKSRWQQGNVFSCSVMHEALHNHYTQESLSLSP
light: DIVMTQSPLSLPVTPGEPASISCQASESLVHSNRNTYLHWYLQKPGQSPQLLIYKVSNRFSGVPDRFSGSGSGTDFTLKISRVEAEDVGVYYCSQNTHVPPTFGQGTKVEIERTVAAPSVFIFPPSDEQLKSGTASVVCLLNNFYPREAKVQWKVDNALQSGNSQESVTEQDSKDSTYSLSSTLTLSKADYEKHKVYACEVTHQGLSSPVTKSFNRGEC
notes: Anti-glypican-3 IgG1 heterodimer; L234Y/G236W/S239D/S298A in H1, S239D/A330L/I332E in H2
KD ratio (FcγRIIIa [5]): 1 fold | KD ratio (FcγRIIIa [1]): 3.2 fold

B3: GpH7-TA7/GpH7-TA50/GpL16-k0 (antibody, human IgG1, kappa)
heavy 1: QVQLVQSGAEVKKPGASVTVSCKASGYTFTDYEMHWIRQPPGEGLEWIGAIDPKTGDTAYSESFQDRVTLTADKSTSTAYMELSSLTSEDTAVYYCTRFYSYTYWGQGTLVTVSSASTKGPSVFPLAPSSKSTSGGTAALGCLVKDYFPEPVTVSWNSGALTSGVHTFPAVLQSSGLYSLSSVVTVPSSSLGTQTYICNVNHKPSNTKVDKKVEPKSCDKTHTCPPCPAPEYLWGPSVFLFPPKPKDTLMISRTPEVTCVVVDVSHEDPEVKFNWYVDGVEVHNAKTKPREEQYNATYRVVSVLTVLHQDWLNGKEYKCKVSNKALPAPIEKTISKAKGQPREPQVYTLPPSRKELTKNQVSLTCLVKGFYPSDIAVEWESNGQPENNYKTTPPVLDSDGSFFLYSKLTVDKSRWQQGNVFSCSVMHEALHNRYTQKSLSLSP
heavy 2: QVQLVQSGAEVKKPGASVTVSCKASGYTFTDYEMHWIRQPPGEGLEWIGAIDPKTGDTAYSESFQDRVTLTADKSTSTAYMELSSLTSEDTAVYYCTRFYSYTYWGQGTLVTVSSASTKGPSVFPLAPSSKSTSGGTAALGCLVKDYFPEPVTVSWNSGALTSGVHTFPAVLQSSGLYSLSSVVTVPSSSLGTQTYICNVNHKPSNTKVDKKVEPKSCDKTHTCPPCPAPELLGGPDVFLFPPKPKDTLMISRTPEVTCVVVDVSHEDPEVKFNWYVDGVEVHNAKTKPREEQYNSTYRVVSVLTVLHQDWLNGKEYKCKVSNKALPLPEEGTISKAKGQPREPQVYTLPPSRDELTKNQVSLTCLVKGFYPSDIAVEWESNGQPENNYKTTPPVLDSDGSFFLYSKLTVDKSRWQQGNVFSCSVMHEALHNHYTQESLSLSP
light: DIVMTQSPLSLPVTPGEPASISCQASESLVHSNRNTYLHWYLQKPGQSPQLLIYKVSNRFSGVPDRFSGSGSGTDFTLKISRVEAEDVGVYYCSQNTHVPPTFGQGTKVEIERTVAAPSVFIFPPSDEQLKSGTASVVCLLNNFYPREAKVQWKVDNALQSGNSQESVTEQDSKDSTYSLSSTLTLSKADYEKHKVYACEVTHQGLSSPVTKSFNRGEC
notes: Heterodimerized anti-glypican-3 IgG1 antibody; K334G is in the H chain other than the one with L234Y/G236W/S298A; also called TA7/TA50
KD ratio (FcγRIIIa [6]): 1.2
